Results published in the nanobody polyreactivity screen of Harvey et al. (2022).

Assay: yeast display, Sf9 membrane polyspecificity reagent, FACS + sequencing; frameworks hold sequencing errors
Summary of the method: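 Nanobodies from a synthetic yeast display library (Saccharomyces cerevisiae BJ5465), induced 36–48 hours with galactose, were stained 1 hour at 4 °C with 10% biotinylated, detergent-solubilized Sf9 membrane reagent, enriched on streptavidin microbeads, then FACS-sorted. Anti-HA (expression) and streptavidin (reagent binding) fluorescence set low and high (top ~1%) gates. Polyreactivity labels come from the gate of origin. Genes were colony-PCR amplified, MiSeq 2 × 250 sequenced and filtered by CDR length.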

| Sequence | polyreactivity (PSR sort gate) |
| --- | --- |
| QVQLVETGGGLVQAGGSLRLSCAASGIIFPFYAMGWYRQAPGKERELVAAITSDGNTNYADSVKGRFTISRDNAKNTVYLQMNSLKPEDTAVYYCNAETQYGVLSWHSTRHDYWGQGTQVTVSS | low polyreactivity |
| QVQLVESGGGLVQEGGSLRLSCAPSGRTFAKYAMGWYRQSPGKERELVAAITRGDTTNYADSVKGRFTISRDNAKNTVYLQMNSLKPEDTAVYYCAATPDPPHTYEYWGQGTQVTVSS | low polyreactivity |
| QVQLVESGGGLVQAGGSLRLSCAASGRIFWPNAMGWYLQAPGKESEFVAAIRWSSDRTYYADSVKGRFTISRDNAKNTVYLQMNSLKPEYTAVYYCNAVRYVISKYDYWGHGTQVTVSS | high polyreactivity |
| QVQLVESGGGLVQAGGSLRLSCAHSGFIFSLYAMGWYIQAPGKERELVAAISRRGGNTYYADSVKGRFTISRDNGKNTVYLQMNSLKPVDTAVSYCNTGQRYGYDWGQGTQVTVSS | high polyreactivity |
| QVKLVESGGGLVQAGGSLRISCAASGRIFKIYAMGWYRQAPGKERELVAAISRGGRTYYADSVKGRFTISRDNAKNTVDLQMNSLKPEDTEVYYCAADLLISPEFYYWGQGTQVTVSS | high polyreactivity |
| QVQLVESGGGLVQAGGSLRLSCAASGRTFPRNGMGWYRQAPGKERELVAAISWSGGRTYYADSVKGRFTISRDNAKNTVYLQMNSLKPEDTAVYYCNALYFRKGGYWGQGTQVTVSS | high polyreactivity |
| QVQLVESGGGLVQAGGSLRLICAASGSIFRYYAMGWYRQAPGKERELVADINGSGGSTYYADSVKGRFTISRDNAKNTVYLQMNSLKPEDTAVYYCATAYGWRRKYYGYDYCGQGTQVTVSS | high polyreactivity |
| QVQLVESGGGLVQAGGSLRLSCAASGLIVPWYDMGWYRQAPGKERELVAAINWRGGSTYYADSVKGRFTISRDNAKNTVYLQMKSLKPEDTAVYYCAACYLHRDSYIYDYWGQGTQVTVSS | low polyreactivity |
| QVQLEESGGGLVQAGGSLRLSCAASGINFSVYGMGGYRQATGKERELVASITKSGGTTYYADSVKGRFTISRDNAKNTVYLQMNSLKPEDTAVYYCAAAWSDKRVLSVYYAYYWGQGTQVTVSS | high polyreactivity |
| QVQLVESGGGLVQAGGSLRLSSAASGRIFGKYAMGWYRQAPGKERELVAAIRITGGSTYYADSVKGRFTISRDNAKNTVYLQMNSLKPEDTAVYYSAAVYKYADVIYDYWGQGTQVTVSS | high polyreactivity |
| QVQLVESGGGLVQAGGSLRLSCAASGGSFNNYAMGWYRQAPGKERELVAAITYSGVRTNYADSVKGRFTISRDNAKNTVYLQMNSLKPEDTAVYYCAADGLSNVRQMDYWGQGTQVTVSS | low polyreactivity |
| QVQLVESGGGLVQAGGSLRISCAASGRIFLFYAMGWYRQAPGKEREWVAAITYSGSTYYADSVKGRFTISRDNAKNTVYLQMNSLIPEDTAVYYCNARYRTYAGTYGYNYWGQGTQVTVSS | high polyreactivity |
| QVQLVESGGGLVQAGGSLRLSCAASGYIFSYYTMGLYRQAPGKERELVASNRWGGGRTYYADSVKGRFTISRDNAKNTVYLQMNSLKPEDTAVYYCNVKSSRLLDVGRMEYWGQGTQVTVSS | high polyreactivity |
| QVQLVESGGGLVQAGGSLRLSCAASGRIFSSYAMGWYRQAPGKERELVAAISRGGGRTYYADSVKGRFTISRDNAKNTVYLQMNSLKPEDTAVYYCATVVRSAAYAFDYWGQGTQVTVSS | high polyreactivity |
| QVQLVESGGGLVQAGGSLRLSCAASGRIFYGYAMGWYIQAPGKERELVAAITYIGGTYYADSVKGRFTISRDNAKNTVYLQMNSQKPEDTSVYYCASEPFYNFVYYTYPYWYDYWGQGTQVTVSS | low polyreactivity |
| QVQLVESGGGLVQAGGSLRLSCAASGSTFAGNAMGWYRQAPGKERELVAAIDSSTGSTYYADSVKGRFTISRDNAKNTVYLQMNSLKPEDTAVYYCAAGYYWQYTSSSAQYAYDYWGQGTQVTVSS | low polyreactivity |
| QVQLVESGGGLVQAGGSLRLSCAASGLIFAIYAMGWYRKAPGKERELVAAISSGGGRTYYADSVKGRFTISRDNAKNTVYLQMNSLKPEDTAVYYCNARYRTVRSGGEYWVLMDYWGQGTQVTVSS | high polyreactivity |
| QVQLVESGGGLVHAGGSLRLSCAASGSIFGYYTMGWYRQAPGKERELDAAITSGGSTNYADSVKGRFTISRDNAKNTVYLEMNSLKPEDTAVYYCAKVSYYPWRYDDWGQGTKVTVSS | low polyreactivity |
| QVQLVESGGGLVQAGGSLRLSCAASGFTFDSYAMGWYRQAPGKERELVAAITSDGSTYYADSVKGRFTISRDNAKNTVYLQMNSLKPEDTAVYYCAADGRYFRAVFRLYDYWGQGTQVTVSS | low polyreactivity |
| QVQLVESGGGLVQAGGSLLLSCAASGRIFDLNAMGWYRQAPGKERELVAAITNTGSTNYADSVKGRFTISRDNAKNTVYLQMNSLKPEDTAVYYCARTYWLRYYGYRDDEYDYWGQGTQVTVSS | low polyreactivity |
| QVQLVESGGGLVQAGGSLRLSCAASGYTFGSYAMGWYRQAPGKERELVAAISKRGGRTYYADSVKGRFTISRDNAKNTVYLQMNSLKPEDTAVYYCAKDYPKYDYWGQGTQVTVSS | high polyreactivity |
| QVQLVESGGGLVQAGGSLRLSCAASGRTFIINTMGWYRQAPGKERELVAAISKNGATTNYADSVKGRFTISRDNAKNTVYLQMNSLKPEDTAVYYCAKKASYWWGYEYWGQGTQVTVSS | low polyreactivity |

| Sequence | polyreactivity (PSR sort gate) |
| --- | --- |
| QVQLVESGGGLVQAGGSLRLSCAASGYIFVPYALGWYRQAPGKERELVASITGGGSTNYADSVKGRFTISRDNAKNTVYLQMNSLKPEDTAVYYCAAVLGGGEKGGRNRRFDSWGQGTQVTVSS | low polyreactivity |
| QVQLVESGGGFVQAGGSLRLSCAASGRICGYYAMGWFRQAPGKERELVAAISSSGGSTYYADSVKGRFTISRDTAKNTVYLQINSQKPEYTAVYYCNVDWYDNGYGGYDYWRQGTQVTVSS | low polyreactivity |
| QVQLVESGGGLVQAGGILRLSCAASGRTFYYYAMGWYRQAPGKERELVAAISWGGGRTYYADSVKGRFTISRDNAKNTVYLHMNSLKPEDTAVYYCDTTAYNGYDYWGQGTQVTVSS | high polyreactivity |
| QVQLVESAGGLVQAGGSLSLSCAASGFNFKGYAMGSYRQAPGKERELVAAISSSGTSTYYADSVKGRFTISRDNEKNTVYLQMNSLKPEDTAVYYCARVSKRTWSGYYYWGQGTQVTVSS | high polyreactivity |
| QVQLVESGGGLVQAGGRLRLSCAASGFTFKKNAMGWYRQAPGKERELVAAIRSGTSTKYADSVKGRFTISRDNAKNTVYLQMNSLKPEDTAVYYCAAEEPEYLATWRNRRYDYWGQGTQVTVSS | low polyreactivity |
| QVQLVESGGGLVQAGGSLRLSCAASGRIIYRYAMGWYRQAPGKERELVATITWSTTSTYYADSVKGRFTISRDNAKNTVYLEMNSLKPEDTAVYYCASSIIPGFRRDPFGYWGQGTQVTVSS | low polyreactivity |
| QVQLVESGGGLVQAGGSLRLSCPASGRIYGYYVMGWYRQAPGKERELVASITSGGSTYYADSVKRRFTISRDNAKYTVYFQMNSLKPEDTAVYDCAARRAWSWKIYDYWGQGTQVTVSS | high polyreactivity |
| QVQLVESGGGLVQAGGSLRLSCAASGNTFAGNAMGWYRHAPRKERELVAAISRSGVTTRYGDSVKGRFTISRDNAKNTVYLQMNSLKPEDTAVYYCNAVPRLRQTREYWGQGTQVTVSS | high polyreactivity |
| QVQLVESGGGLVQAGGSLRLSCAASGSTFYLYGMGWYRQAPGKERELVAAITYSGGSTYYADSVKGRFTISRDNAKNTVYLQMNSLKPEDTAVYYCNARSQWRSSRFYYWGQGTQVTVSS | high polyreactivity |
| QVQLVESGGCLVQAGGSLSLSCAASGSTFVAYAMGWYRQAPGKESELVAAISKSGVRTYYADYVKGRFTISRDNAKNTVYLQMNSLKPEDSAFYYCAALTYYSQVTSSVSLQQYGYWGQVTQVTVSS | low polyreactivity |
| QVQLVESGGGLVQAGGSLRLSCAASGFIFAPNAMGWYRQAPGKERELVAAISHSGASTFYADSVKGRFTISRDNAKNTVYLQMNILKPEDTAVYYCAADLYIYYVWIRDYWGHGTQVTVSS | low polyreactivity |
| QVQLVESGGGIVQAGGSLRLSCAASGNIFFWYDMGWYRQAPGKERELVATITSSGGSTYYADSVKGRFTISRDNAKNTVYLQMNSLKPEDTAVYYCNALPYYRDDYWGQGTQVTVSS | low polyreactivity |
| QVQLVESGGGLVQAGGSLRLSCAASGRIFGVYAMGWYRQAPGKERELVASITGSGGRTYYADSVKGRFTISRDNAKNTVYLQMNSLKPEDTAVYYCAAKWGTRLAQQKSYGYWGQGTQVTVSS | high polyreactivity |
| QVQLVESGGGLVQAGGSLRLSCAASGRTLVPYAMGWYRQAPGKERELVAAINSSGGSTYYADSVKGRFTISRDNAKNTVYLQMNSLKPEDTAVYYCNVQSVHFRLWKDNYWGQGTQVTVSS | high polyreactivity |
| QVQLVESGGGLVQAGGSLRLSCAASGNIFVNYAMGWYRQAPGKERELVASINYNGGNTYYADSVKGRFTISRDNAKNTVYLQMNSLKPEDTAVYYCAADLPESPESYYDTDDYWGQGTQVTVSS | low polyreactivity |
| QFQLVESVGGLVQAGGSLRLSCAATGRTSYVYLMVSYRAATGTEMELVAAITGSGGSTYYADSVKGRFTISRDNEKNNVYLQLNSLKPEDTAVYYCAKAYYSYEVYLGLSYVRRYVYWGQGTQVTVSS | low polyreactivity |
| QVQLVESGGGLVQAGGSLRISCAASGSIFGYAMACYRQGPGKERELVAAITSSGGSTYYADSVKGRFTISRDNAKNTVYLHKNSLKPEDTAGYYCNAYLRWYITLLRFLAGGDYWGQGYQVTVSS | high polyreactivity |
| QVQLVESGGGLVQAGGSLRLSCAASGSIFYYNAMGWYIQAPGKEREFVAAISSSGGSTYYADSVMGRFTISRDNAKNNVYLQMYRLKPEDTAVYYCAAKLRHWAHHTKYDYWGQGTQLTVSS | low polyreactivity |
| QVQLVESGGGLVQAGGSLRVSCAASGRIIPSYAMGWYRQAPGKERELVAVIRSSVDGTYYADSVKGRFTISRDNAKNTVYLQMNSLKPEDTAVYYCAADSYPFFNLNQYPVREGEYGHWGQGTQVTVSS | low polyreactivity |
| QVQLVESGGGLVQAGGSLRLSCAASGRIFGYYTMGWYRQAPGKERELVAGITRRGGRTYYADSVKGRFTISRDNAKNTVYLQMNSLKPEDTAVYYCAVRSGVNFYYWGQGTQVTVSS | high polyreactivity |
| QVQLVESGGGLVQAGGSLRLSCAASGFIFSNNAMGWYRQAHGKERELVAAISKSGGGTSYADSVKGRFTISRDNAKNTVYFQMNSLKPEDSAVYYCAARFRQFRVDYWGQGTQVTVSS | high polyreactivity |
